Substrate in this series: O=P(O)(O)OP(=O)(O)O
As to the kind of experiment: cells, lysate or membranes. To be noted: 0 mM added NaCl, 100 mM KCl, pH 7.2, 30 °C, Mg2PPi substrate without excess Mg2+, Na+ from Na4PPi present.

B1: AVP1 (Arabidopsis thaliana) (protein)
chain: MVAPALLPELWTEILVPICAVIGIAFSLFQWYVVSRVKLTSDLGASSSGGANNGKNGYGDYLIEEEEGVNDQSVVAKCAEIQTAISEGATSFLFTEYKYVGVFMIFFAAVIFVFLGSVEGFSTDNKPCTYDTTRTCKPALATAAFSTIAFVLGAVTSVLSGFLGMKIATYANARTTLEARKGVGKAFIVAFRSGAVMGFLLAASGLLVLYITINVFKIYYGDDWEGLFEAITGYGLGGSSMALFGRVGGGIYTKAADVGADLVGKIERNIPEDDPRNPAVIADNVGDNVGDIAGMGSDLFGSYAEASCAALVVASISSFGINHDFTAMCYPLLISSMGILVCLITTLFATDFFEIKLVKEIEPALKNQLIISTVIMTVGIAIVSWVGLPTSFTIFNFGTQKVVKNWQLFLCVCVGLWAGLIIGFVTEYYTSNAYSPVQDVADSCRTGAATNVIFGLALGYKSVIIPIFAIAISIFVSFSFAAMYGVAVAALGMLSTIATGLAIDAYGPISDNAGGIAEMAGMSHRIRERTDALDAAGNTTAAIGKGFAIGSAALVSLALFGAFVSRAGIHTVDVLTPKVIIGLLVGAMLPYWFSAMTMKSVGSAALKMVEEVRRQFNTIPGLMEGTAKPDYATCVKISTDASIKEMIPPGCLVMLTPLIVGFFFGVETLSGVLAGSLVSGVQIAISASNTGGAWDNAKKYIEAGVSEHAKSLGPKGSEPHKAAVIGDTIGDPLKDTSGPSLNILIKLMAVESLVFAPFFATHGGILFKYF
Turning to B1, the K0.5 turned out to be 0.14 ± 0.08 mM.

The values above are taken from paper PMC7438732, “The H^+-Translocating Inorganic Pyrophosphatase From Arabidopsis thaliana Is More Sensitive to Sodium Than Its Na^+-Translocating Counterpart From Methanosarcina mazei” (Frontiers in Plant Science, 2020).
